# Substitutions are numbered along the chain they refer to.
# B1: 8A4 VHH-hFc (Fc fusion)
# chain: EVQLVESGGGLVQPGESLRLSCEASGFTFSSVYMSWVRQAPGKGLEWISTIHPAGGSTYYADSMKDRFTISRDNAKNTLYLQMNSLKSEDTALYYCIIEALSGYRGPGTQVTVSS
# notes: also called 8A4-hFc; NCI-CoV-8A4 VHH-hFc fusion protein
# B2: 7C4 VHH-hFc (Fc fusion)
# chain: EVQLVESGGGLVQPGGSLRLSCTASGFTFSSYDMSWVRQAPGKGLEWVSGINSGGNKIYYADSVKGRFTISRDNAKNTLYLQMSSLKSEDTALYYCAIGRLYSVKGQGTQVTVSS
# notes: also called NCI-CoV-7C4 VHH-hFc fusion protein
# B3: 7A5 VHH-hFc (Fc fusion)
# chain: B2 chain with E1A, T23A, D33Y, G50T, G54R, N56S, K57S, I58T
# notes: also called NCI-CoV-7A5 VHH-hFc fusion protein
# B4: 3E8 VHH-hFc (Fc fusion)
# chain: QVQLVESGGGLVQAGGSLRLSCATSGFTFSGGYMAWVRQVPGKGLEWVANSIYDGSTYYSDAVKGRFTVSQDNAENTVYLEMNSLEPEDTAMYYCAAGWNGGPWSRTNAYIYWGQGTQVTVSS
# notes: also called NCI-CoV-3E8 VHH-hFc fusion protein
# B5: 2C7 VHH-hFc (Fc fusion)
# chain: EVQLVESGGGSVQTGGSLRLSCVVSGYDYSNYCVAWFRQAEGKNREGLAGINTHGAYTNYNTPAKGRFTISQDLTKNTFTLQMNSLTPEDTAIYYCAAYPEYCPRFSSSSWNNSAVWGQGTQVTVSS
# notes: also called NCI-CoV-2C7 VHH-hFc fusion protein
# B6: 1A7 VHH-hFc (Fc fusion)
# chain: QVQLVESGGGLVQPGGSLRLSCVASGFTFSSVDMSWVRQDPRKGLEWVSGINSGGGSTSYADSVKGQFTISRDNAKNTLYLEMNNLKPEDTAVYYCATGLAASGVWGQGTQVTVSS
# notes: also called NCI-CoV-1A7 VHH-hFc fusion protein
# B7: 2F7 VHH-hFc (Fc fusion)
# chain: QVKLEESGGGSVQSGGSLRLSCTVSRDTNTNINRCMGWFRQAPGKGLETVATINRDGTNTYYTDAVKGRFTISQDNVKNTVYLQMNNLTPEDTGTYICNAMGRGSGSRCDNWDPNYWGQGTQVTVSS
# notes: also called 2F7-hFc; NCI-CoV-2F7 VHH-hFc fusion protein
# B8: NCI-CoV-7C4 (VHH)
# VHH: B2 chain
# B9: NCI-CoV-8G12 (VHH)
# VHH: AVQLVDSGGGSVQAGGSLRLSCAASGYTSNMNHMGWFRQAPGKGLEWVSGIYSDGSTYYGDSVKGRFTISRDNAKNMLYLQMNNLKPEDTAVYYCSGDGGGIGYNYWGQGTQVTVSS
# B10: NCI-CoV-1A10 (VHH)
# VHH: AVQLVDSGGGSVQAGGSLRLSCAASGFTGSNYCLGWFRQAPGKEREGVAVIERDTGGTTYPNSLEGRFTIAQDNAKNMVYLHMRNLQPEDTGTYTCAAARNGDSFGGFTFWGQGTQVTVSS
# B11: NCI-CoV-8B6 (VHH)
# VHH: AVQLVDSGGGSVQAGGSLRLSCAASGITYSTNCMGWFRQAPGKGLEWVSGINSDGRNTYYADSVKGRFTISQDNAKNTVYLQMNSLKPEDTAMYYCAAGSWYNQWGYSMDYWGQGTQVTVSS
# B12: NCI-CoV-7A3 (VHH)
# VHH: QVQLVESGGGSVQPGGSLRLSCVVSGYTSSSRYMGWFRQVPGKGLEWVSGIKRDGTNTYYADSVKGRFTISQDNAKNTVYLQMNSLKPEDTAMYYCAAGSWYNQWGYSMDYWGKGTQVTVSS
# B13: NCI-CoV-1H6 (VHH)
# VHH: AVQLVDSGGGSVQAGGSLNLSCVASGTTLRNGCMAWFRQVPGKEREVVAIIIRATSYTDYADSVKGRFTISQDNAKNTVYLQMKSLTPEDTATYYCAATLYRVNCAKREFDKWGQGTQVTVSS
# B14: NCI-CoV-8E1 (VHH)
# VHH: EVQLVESGGGSVQAGGSLRLSCAASGFTFSSYYMSWVRQAPGKGLEWVSGIYSDGSTYYGDSVKGRFTISRDNAKNTLYLQMNSLKSEDTALYYCAIGTGTTRQGQGTQVTVSS
# B15: NCI-CoV-1G11 (VHH)
# VHH: QVQLVESGGGSVQAGGSLRLSCVASGDTNTRQYMGWFRQAPGKEREGVAVVHSDSGGTYYADSVKERFIIAQDNAKNTVYLTMNSLKVEDTAIYYCAAKTLEKPHFSVFSAASYDYWGQGTQVTVSS
# B16: NCI-CoV-1B5 (VHH)
# VHH: DVQLVESGGGSVQAGGSLRLSCTGSRYTYSTYCMGWFRQAPGKEEEAVAIINSGGGEPYYGDSVKGRFTISQDRAKNTVYLQMDGLQPDDTAIYYCVAADSHNSRCYLGRSYVNYWGQGTQVTVSS
# B17: NCI-CoV-2D4 (VHH)
# VHH: EVQLVESGGGSVQAGGSLRLSCAASAVTSNTNYVGWLRQVPGKEREGVAGIYYDGGVYYDESVKGRFTISRDNAQNTVFLQMNSLKPEDTAMYYCGAGRGYRYQYGSAWYKPGQYHYWGQGTQVTVSS
# B18: NCI-CoV-7E5 (VHH)
# VHH: AVQLVESGGGSVQAGGSLRLSCAASGYTYSSNYMGWFRQAPGKELEWVSGIYSDGRTYYGDSVKGRFTISRDNAKNTVYLQMNSLKPEDTAMYYCAAGSWYNQWGYSMDYWGKGTQVTVSS
# B19: NCI-CoV-8A2 (VHH)
# VHH: AVQLVDSGGGSVQAGGSLRLSCAASGYTYSICTMGWYRQAPGEGLEWVSGINADGSNTHYTDSVKGRFTISRDNAKKTLYLQMNSLKPEDTAIYYCAAHGTYDKYAPCGGFAGTYTYWGQGTQVTVSS
# B20: NCI-CoV-1A7 (VHH)
# VHH: B6 chain
# B21: NCI-CoV-2F7 (VHH)
# VHH: B7 chain
# B22: NCI-CoV-2A10 (VHH)
# VHH: QVQLVESGGGSVQAGGSLRLSCAMSGLRVSNRCMGWFRQAPGKEREGVATICIGDGSTAYADSVKGRFTISQDNAKTTVFLEMNSLKPEDTAMYSCARAVRATAATLDPGNFFYWGQGTQVTVSS
# B23: NCI-CoV-8A1 (VHH)
# VHH: QVQLVESGGGSVQAGGSLRLSCAASGFTFSSYFMTWVRQAPGKGLEWVSTINSDGSNTYYADSVKGRFTISRDNAKNTLYLQMNSLKPEDTAMYYCNFRRMIGTSNLNYWGQGTQVTVSS
# B24: NCI-CoV-1D7 (VHH)
# VHH: QVKLEESGGGLVQPGGSLKLSCTASGFTFSSYNMSWVRQAPGKGLKWVSMIRSDGSNTYYLDSVKGRFTISRDNAKNTVYLQMNSLEPGDTAVYYCVAGRHATYWGQGTQVTVSS
# B25: NCI-CoV-2F5 (VHH)
# VHH: B24 VHH with K3Q, E5V
# B26: NCI-CoV-1H8 (VHH)
# VHH: QVQLVESGGGLVQPGGSLRLSCAASGFTFSSYDMTWVRQAPGKGLEWVAAIYTADGSTYLDDSVKGRFTISQDNAKKTLYLQMTSLKVEDTAKYTCATGVGGSFSNWGRGTQVTVSS
# B27: NCI-CoV-2B3 (VHH)
# VHH: DVQLVESGGSSVQAGGSLRLSCAASGDSYRGNLMGWFRQAPGKAREGVAVIFTPNHNTYAADSVKGRFTISQDKAKNMVYLQMNSLKPEDTAMYYCATGWEGGLILSARAYRYWGQGTQVTVSS
# B28: NCI-CoV-4C6 (VHH)
# VHH: QVQLVESGGGSVQAGESLRLSCAVSGISSSTHYMAWFRQLPGKEREGLANIYTPAKVSLYANDVKGRFTISQDVTKNTVYLQMNSLKPEDTAMYYCAARRNAVCNAGSPLDFEFSYWGQGTQVTVSS
# B29: NCI-CoV-3E5 (VHH)
# VHH: EVQLVESGGGLVQPGGSLRLSCAASGFAFSSTRMHWVRQAPGVGLEWVSFIDRTDGGIISYADSVRGRFTISRDNAKNTVYLQMDRLNAEDTAVYYCLKEGPYLDYWDAWGQGTQVTVSS
# Target: T1, BSA (UniProt P02769 25-607)
# T1 construct: also called control protein
# T1 sequence (P02769 25-607 limits assumed): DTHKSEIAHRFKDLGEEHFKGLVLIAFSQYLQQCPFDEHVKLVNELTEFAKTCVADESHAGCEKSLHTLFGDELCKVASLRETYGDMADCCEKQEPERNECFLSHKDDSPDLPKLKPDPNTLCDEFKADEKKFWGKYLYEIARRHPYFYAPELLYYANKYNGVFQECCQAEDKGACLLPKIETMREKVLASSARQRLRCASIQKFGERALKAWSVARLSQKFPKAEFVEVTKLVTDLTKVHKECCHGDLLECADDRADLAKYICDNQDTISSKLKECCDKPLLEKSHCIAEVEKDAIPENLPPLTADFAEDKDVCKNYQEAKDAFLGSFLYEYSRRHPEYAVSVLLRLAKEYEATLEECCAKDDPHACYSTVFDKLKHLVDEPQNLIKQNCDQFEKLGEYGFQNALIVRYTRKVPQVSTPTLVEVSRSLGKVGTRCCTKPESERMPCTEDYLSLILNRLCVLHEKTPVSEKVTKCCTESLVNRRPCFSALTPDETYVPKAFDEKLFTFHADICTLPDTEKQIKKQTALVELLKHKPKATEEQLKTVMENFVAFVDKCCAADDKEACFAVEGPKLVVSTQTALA
# Experiment: ELISA, 1 µg/ml coated BSA, 1 µg/ml VHH-hFc
row,Binder,binding result
1,B1,no binding (tested: 1 µg/ml)
2,B2,no binding (tested: 1 µg/ml)
3,B3,binds
4,B4,no binding (tested: 1 µg/ml)
5,B5,no binding (tested: 1 µg/ml)
6,B6,no binding (tested: 1 µg/ml)
7,B7,no binding (tested: 1 µg/ml)

# Target: T2, SARS-CoV S1 (SARS-CoV, UniProt P59594 14-667)
# T2 construct: domain: S1; also called SARS-CoV S1 protein
# Experiment: ELISA, 1 µg/ml coated antigen, 1 µg/ml VHH-hFc
row,Binder,binding result
1,B1,binds
2,B2,binds
3,B3,binds
4,B4,binds
5,B7,no binding (tested: 1 µg/ml)

# Target: T3, SARS-CoV-2 S1
# T3 construct: also called S1 subunit of the SARS-CoV-2 spike protein
# Experiment: monoclonal phage ELISA, drawn table of OD450 values
row,Binder,OD450
1,B8,0.52
2,B9,0.62
3,B10,0.84
4,B11,0.88
5,B12,0.54
6,B13,0.82
7,B14,0.51
8,B15,0.68

# Target: T4, SARS-CoV-2 S trimer (SARS-CoV-2, UniProt P0DTC2 16-1213)
# T4 construct: also called SARS-CoV-2 S protein; S homotrimer protein
# Experiment: as above
row,Binder,OD450
1,B16,0.67
2,B8,0.76
3,B17,0.58
4,B9,0.6
5,B10,0.63
6,B12,0.59
7,B18,0.6
8,B13,0.72
9,B19,0.61
10,B20,0.67
11,B14,0.58
12,B21,0.8

# Target: SARS-CoV-2 spike on pseudovirus (SARS-CoV-2, UniProt P0DTC2 14-1273)
# Experiment: cell-based or functional assay
row,Binder,"IC50, SARS-CoV-2 spike pseudovirus neutralization, repeated assay (FIGS. 9A-9F) [µM]"
1,B2,4.29
2,B3,3.43
3,B4,1.17
4,B5,5.79
5,B6,0.428

# Target: SARS-CoV-2 RBD (SARS-CoV-2, UniProt P0DTC2 319-541)
# Experiment: monoclonal VHH phage clone binding screen (FIG. 3A)
row,Binder,binding result
1,B22,binds
2,B23,binds
3,B24,binds
4,B25,binds
5,B26,binds
6,B27,binds
7,B28,binds
8,B11,binds
9,B29,binds

# From patent US20230391852A1 (US Dept. of Health and Human Services, published 2023)
